Assay results published in publication PMC7959301.

Biological target: SpyCatcher-fused ferritin protein (Streptococcus pyogenes | not stated)
Test: SDS-PAGE of the covalent SpyTag/SpyCatcher adduct

## 6 × His-SpyTag-AE2F SOSIP.664
  percent of input conjugated: 80 to 90%
